B1: HDV Ribozyme (parent)
chain: GGCCGGCAUGGUCCCAGCCUCCUCGCUGGCGCCGGCUGGGCAACAUUCCGAGGGGACCGUCCCCUCGGUAAUGGCGAAUGGGACCCA

In the series the parent is B1. Put plainly: self-cleavage, relative activity (ratio to wild type); higher = more cleavage; co-transcriptional.
On to G6C G67U, for which the self-cleavage was 0.268.
Turning to G6C G67A, the self-cleavage was determined as 0.35.
Regarding G6U A71G, the self-cleavage was found to be 0.399.
The result for G6U A71C reads 0.123; that for G6U G82C, 0.17; that for G6U G55A, 0.59.
The value for G6U G55C was 0.495; that for G6U G55U was 0.942; that for G6U G10A was 0.185.
The result for G6C G73C reads 0; that for G6C G73A, 0.0723; that for G6U C14G, 0.166.
G6U C14A: the self-cleavage is 0.0692.
In the case of G6U C14U, the self-cleavage was found to be 0.682.
In the case of G6C G53A, the self-cleavage was 0.233.
As for G6U C85G, the self-cleavage stood at 0.297.
The result for G6C C36G reads 0.158; that for G6C C36U, 0.175; that for G6C G74A, 0.0875.
In the case of G6C G39U, the self-cleavage stood at 0.108.
The result for G6C G39C reads 0.293; that for G6C G39A, 0.0405.
The value for G6U C86G was 0.467; that for G6U C86U was 0.633; that for G6U G74C was 0.0449.
In the case of G6A G80U, the self-cleavage turned out to be 0.0813.
Turning to G6A G80A, the self-cleavage was 0.147.
Consider G6C A56G, for which the self-cleavage amounted to 0.453.
In the case of G6C A56U, the self-cleavage is 0.214.
On to G6C C62G, for which the self-cleavage came to 0.151.
Take G6C C62U: the self-cleavage stood at 0.193.
The result for G6U C26A reads 0.397; that for G6A G68U, 0.691.
The value for G6A G68C was 0.604.
Turning to G6C U27C, the self-cleavage was 0.0923.
The value for G6C G59C was 0.277; that for G6C G59A was 0.492; that for G6C A71G was 0.
The value for G6C A71U was 0.138.
As to G6C U79C, the self-cleavage was found to be 0.0405.
The result for G6A A87C reads 0.635.
The result for G6C G40C reads 0.175.
In the case of G6C G40U, the self-cleavage was determined as 0.0536.
Consider G6A G40A, for which the self-cleavage amounted to 0.505.
G6A G40C: the self-cleavage stood at 0.232.
The value for G6U G68A was 0.483.
The result for G6A G54C reads 0.672.
On to G6A A51C, for which the self-cleavage was 0.522.
The result for G6A A51G reads 0.517; that for G6U C57G, 0.491; that for G6U C57U, 0.573.
G6A U23C: the self-cleavage turned out to be 0.532.
The result for G6A U23G reads 0.342.
The result for G6C G25A reads 0.0898.
On to G6C G25C, for which the self-cleavage is 0.
The result for G6C A77U reads 0.145.
Consider G6C U72G, for which the self-cleavage stood at 0.229.
The value for G6A U37G was 0.128.
For the variant G6C U9C, the self-cleavage came out at 0.391.
The result for G6C U9G reads 0.208; that for G6C C19U, 0.0773; that for G6U G59A, 0.544.
The result for G6U G59U reads 0.69; that for G6U G59C, 0.475.
G6U G39C: the self-cleavage was 0.151.
The result for G6U G39U reads 0.106; that for G5U U65G, 0.475.
As for G6U C75A, the self-cleavage turned out to be 0.0875.
The result for G6A G31A reads 0.0992; that for G6A G31C, 0.111.
The value for G6C G82U was 0.122; that for G6C U20C was 0.0923.
The result for G6C U20G reads 0.0978.
Turning to G6A G10C, the self-cleavage worked out at 0.249.
The result for G6A G55C reads 0.791; that for G6C A51G, 0.222; that for G6C A51U, 0.469.
As for G6A C36U, the self-cleavage is 0.286.
In the case of G6A C36G, the self-cleavage was 0.0811.
The value for G6A C36A was 0.
For G6A C30A, the self-cleavage came out at 0.0421.
For the variant G6A C30U, the self-cleavage amounted to 0.432.
For the variant G6A A43U, the self-cleavage was 0.116.
G6U C13G: the self-cleavage was 0.
As for G6U C13A, the self-cleavage was 0.0875.
The value for G6A G52U was 0.694.
The result for G6C U37G reads 0.0923; that for G6U G35A, 0.208; that for G6U G35U, 0.143.
The result for G6U G73A reads 0.113; that for G6A C26G, 0.856.
Regarding G6A G76C, the self-cleavage came to 0.764.
For the variant G6C A83C, the self-cleavage worked out at 0.0875.
Consider G6C A83U, for which the self-cleavage was determined as 0.0692.
As for G6C G29C, the self-cleavage was 0.161.
The value for G6C G29A was 0; that for G6U A51C was 0.656.
As to G6U A51G, the self-cleavage was 0.475.
On to G6A C13A, for which the self-cleavage was found to be 0.185.
The value for G6A C62G was 0.441; that for G6A C62U was 0.728; that for G6A A70C was 0.527.
In the case of G6A A70U, the self-cleavage turned out to be 0.399.
The value for G6A G29A was 0.0959.
The result for G6U G11U reads 0.0361; that for G6U G11C, 0; that for G6C U65G, 0.115.
G6U G50C: the self-cleavage worked out at 0.776.
The value for G5U U60G was 0.151; that for G6A G50A was 0.785; that for G6U A83C was 0.0852.
The value for G6A C44U was 0.457; that for G6A C44A was 0.201.
The result for G6A U69G reads 0.689; that for G6C C13A, 0; that for G6C C13U, 0.0831.
As to G6C C13G, the self-cleavage was 0.151.
With G6C C48A, the self-cleavage was 0.443.
The value for G6C C48G was 0.199; that for G6A G74C was 0.155; that for G6A G74U was 0.104.
With G6A G74A, the self-cleavage was 0.0923.
The value for G6U G53U was 0.643; that for G6A A42U was 0.283.
The result for G6A A42C reads 0.0831.
The value for G5U U79A was 0.104.
G5U U79C: the self-cleavage worked out at 0.123.
With G6C G52A, the self-cleavage turned out to be 0.369.
Turning to G6C G52U, the self-cleavage worked out at 0.237.
In the case of G6U G25A, the self-cleavage came to 0.169.
The value for G6U C64U was 0.723.
The result for G6U C64A reads 0.415; that for G6A C86A, 0.536.
Take G6C C75A: the self-cleavage was 0.0723.
The result for G6C C75G reads 0.0536.
Take G6C C64G: the self-cleavage was found to be 0.344.
Take G6C C64A: the self-cleavage stood at 0.594.
The result for G6C C64U reads 0.244; that for G6U C19U, 0.0489.
The result for G6C G10U reads 0.0755; that for G6C G10A, 0.147; that for G6A C18A, 0.
G6A C18U: the self-cleavage worked out at 0.148.
As to G6A C18G, the self-cleavage is 0.115.
With G6U A77U, the self-cleavage came to 0.158.
The result for G6U A77G reads 0.302; that for G6A G67A, 0.763.
On to G6U G81C, for which the self-cleavage amounted to 0.196.
As to G6U G81A, the self-cleavage was 0.0997.
The value for G6U G81U was 0.154; that for G6U C36G was 0.
The value for G6U C36U was 0.227; that for G6C C15U was 0.138.
Regarding G6C C15A, the self-cleavage came out at 0.
As to G6A C75U, the self-cleavage came to 0.193.
As for G6A C75G, the self-cleavage was 0.0369.
The result for G6A C75A reads 0.17.
The value for G6U A16U was 0.305; that for G6A U12C was 0.277.
Take G6A A56U: the self-cleavage is 0.601.
The value for G6A A56G was 0.848; that for G6A A56C was 0.571; that for G6U G54U was 0.643.
The value for G6U G54C was 0.383; that for G6C A87G was 0.288; that for G6C G50U was 0.17.
The result for G6C G50A reads 0.225.

Source of the values: the RNAGym collection of RNA variant scans (doi:10.7554/elife.80360).
